Data on 1 substance can be found in paper PMC4944999 (PLoS ONE, 2016).

The assay deals with PeB^GF-Lys, double substituted variant ([change], [change]) of PeB-Lys (mouse). The experiment in a line: SPR. On the technique in general: In SPR one partner is held on a chip, and binding of the other changes the refractive index at the surface.

In turn, “hemagglutinin (HA) of influenza A/California/7/2009 H1N1, in the split vaccine Pandemrix (natural protein)” had a fold amount of hemagglutinin bound compared to PeB of 20 fold.
